Assay results from the supplement of paper PMC9170038.

Tested on: K4 kissing-loop RNA reporter
Assay: apparent KD of K4 kissing-loop reporter; higher = weaker reporter binding
Details: Eterna round: R107; input ligand: arginine 13.2 mM
Procedure: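 RNA-MaP round R107: designed RNA switches with theophylline, tryptophan, arginine or FMN aptamers are transcribed on-chip within common flanks. They are titrated with a labelled K4 kissing-loop RNA reporter in RNA-MaP buffer (100 mM Tris pH 7.5, 80 mM KCl, 4 mM MgCl2), without ligand or with the indicated ligand. Median apparent KD per design.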
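Further: bound reporter read as fluorescence of individual clusters on recovered sequencing chips by microscopy, with normalized cluster intensities fitted with a binding model.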

| Sequence | apparent KD of K4 kissing-loop reporter [nM] |
| --- | --- |
| GCCGUACGCAUGGAUACCAGCUAGACCGAGUGAUGUUCAGGUCUGAAUGCCGGUAAUAAGAGCCCUUGGCAGCCAUGCGUACGGC | 262 |
| GGAUAGGACACGGCCGCCACUACCGAGGAUACUCGAAACAUUUCCUCAGAUGAGUGAUGUUCAUCUAGGACCGGGUGUCCUAUCG [KL-XTryp-B19 #analogue] | 103 |
| UAAUAUCAACUUGUAGGAGUGAUGUUCCGCCGAGGACCGGUACGGCCGCCACUCGACAAAAUCUCAGUGUGGUACCUAGGAAUUU [theeternabot_exclusion_KL_Trp_A_24] | 313 |
| GAUAGGAAACUAUCAAAUCGGGAAACCGAUACCAGUAUGGAUUCAUACCCUUGGCAGCGGGAUUAUAAAAUAGGAGUGAUGUUCC [Theophylline A K4 16] | 213 |
| UGAUUUAACUGAAGGAGCGGCAAUUGAUAAGUAAAUAUAGUGAUGUUAUAUAAGAUAGAGAGCCAGGUAGGUCGCAGAGGUAUUU [ExArgB.N] | 141 |
| UAAUCACUCGAACUGCAAGUACGAGUGGAACGAGGACCGGUACGGCCGCCACUCGAUAACUUGCAGUGAUGUUGCAAGUAAGAAU [(T)''-(K)'-(T)'-(T1)-(T2)-(K1)-(K2)_Design7] | 52.4 |
| UUUUUGGUUUAGAGUGAUGUUCCUUGUUUUCGAGGACCGGUACGGCCGCCACUCGAAAAGAAAAGAAAAGAAAAGAGUGAUGUUU [BDazzled - #1 SS Tryptophan A] | 252 |
| UAACCGCAGAAAGAUACCAGUGAGUGAUGUUCCUCGAUCCUGUGGUUCAUUCUCUUUACCCACCCUUGGCAGCUUCAAAUGUGAC [theeternabot_exclusion_KL_Theo_B_4] | 537 |
| GCGUUACUGAAAGGAUAUGAUCAACAUAGUGGUCAGUGAUGUUGGCAGGCCUCGUGGCGAGGUAGAUCAGAAGGUUCAUUACGAC [theeternabot_sameState_KL_FMN_B_11] | 484 |
| CUAGCCGGGAAAGGAUAUACACACGCACAUAACGAGUGAUGUUCGUUAAUACCAACUUGGUUAACUGUAGAAGGUUCAUCGUCAC [theeternabot_sameState_KL_FMN_B_36] | 576 |
| UUUUAAUAAAAGGAUACCAGUACAAAUAAAGUACAUUAAUAGUAGAGUGAUGUUCUAAAGUACCCUUGGCAGCUUAGAGUAAGUU [#17 K4 Theophylline B Exclusion] | 253 |
| UGAUACCAGACGGCCGCCACUGCACCAGUCAAUGACUGAGUGUAGUAAUGCUCAGUGAUGUUGAGUAGGACCGGGUCUGGUAUCU [Mod of Eli's TrypBX 8 v1] | 122 |
| GAUUACAACAGAGUGAUGUUCUGACUUUCUCGAGGACCGGUACGGCCGCCACUCGUUAAACAAAGUGGUUUGCCAAGGCCAACUU | 198 |
| GGCACGUUCCCUUGAUCAGUGAUGUUGUUUCGAGGACCGGUACGGCCGCCACUCGCUCGGCGUUCGCCCAGGCCCGGAAAACUGC [theeternabot_exclusion_KL_Trp_A_13] | 207 |
| UGUACCGAGUCAGGAUAUAGCGUCGAAAGACGAAUCCUAGUGAUGUUAGGGAUCUGCGAAAGCAGUCUAGAAGGGACUUGGUACU [FmnBS 26 A19+U68] | 278 |
| CGAUUUGCUUCAGCCUUAGUGAUGUUAAGGCGAGGACCGGUACGGCCGCCACUCGUAGGUUAUGUGCACGGCGGCGCUAAGGGCC [theeternabot_exclusion_KL_Trp_A_36] | 107 |
| CGGAUGUAGUGAUGUUAUAUAAGAAGUAGACGAGGACCGGUACGGCCGCCACUCGAAACGGCUACUAGCGCGUUGCGAGGUGUGC [ExTryptoA.Ch] | 681 |
| UUCUUGAUGGAAACAUCGAGGAUCACUGAUACCAGUAUCGAUAGAUACCCUUGGCAGCAGUGUCGGUGGUCACGAGUGAUGUUCG [Ex Theophylline A K4 12] | 731 |
| GGAUCCUAGGCGGCCGCCACUCCAAUUGGCCGAAAGGCCUGAUACCGAGUGAUGUUCGGUUGGAGGAGGACCGGGCCUAGGAUCC [#2 Exclusion - Tryptophan B Attempt #2 (HarryS)] | 132 |
| UACAGGGAUAGUGAUGUUAUCCCAUGUGAUACCAGUGCCAUCCAACACCCUUGGCAGCAUACGGGCAGUGAUGUUGUUCUUGGUU [Exclusion Theophylline A GF 13] | 85.4 |
| AUGUACACGAUAGUGUACUCCUAGUGAUGUUAGGAUAUGCAGAUAUGCAGAAGGGACAAGUCAUCUGACAAUAGUCGGAUGACAA [FmnAX 10 #OpenEnded #K4Early] | 85.6 |
| AGGUGAGACUGAAGGAGCGAUCGCGCUAGUGAUGUUGGCGAGCAUGACAAAGUCAUGCACGAUCAGGUAGGUCGCAGUCUUACUC [Omei KL Arginine B SS B v1] | 103 |
| AAGAAUAAUCUUGCAGUGAUGUUGCAAGAUACCAGCAUCGAAAGAUGCCCUUGGCAGCUUGAAAACAUCACUAUCAAGCUGCAUA [Design2] | 452 |
| UUAAUAAUUCAAGGAUAUGUUUUCUAUUUCGAGUGAUGUUCGGAAUUAAUAAAUUUAAAAGAUUAUACAGAAGGUGAUAAAUAGU [Cynwulf-mod#2] | 92.8 |
| UGUCAUUGGUCUGAUACCAGUACCCUUGGCAGCCAAGGAGUGAUGUUCCAAGGAUACCAGUGCCCUUGGCAGCAGACCGAUGACU [TheoBS 12 #DoubleAptamer #SwitchBubble] | 563 |
